B1: Interleukin-6, P08505 (parent)
chain: MKFLSARDFHPVAFLGLMLVTTTAFPTSQVRRGDFTEDTTPNRPVYTTSQVGGLITHVLWEIVEMRKELCNGNSDCMNNDDALAENNLKLPEIQRNDGCYQTGYNQEICLLKISSGLLEYHSYLEYMKNNLKDNKKDKARVLQRDTETLIHIFNQEVKDLHKIVLPTPISNALLTDKLESQKEWLRTKTIQFILKSLEEFLKVTLRSTRQT

In this series the parent is B1. To be noted: Mus musculus, 25 °C, CD, structure 2L3Y, whole UniProt chain shown.
The mark [1] stands for this setting: pH 4, Urea, Sodium acetate 10 mM.

W60A: under setting [1], the “ddG of mutation (higher = less stable)” value stood at 2 kcal/mol, the denaturant m value came out at 2.5 kcal/mol/M, the “denaturant midpoint (higher = more stable)” value (shortened to “denaturant midpoint”) stood at 3.5 M and the unfolding free energy is 8.8 kcal/mol. For the setting “pH 7.4, GdnHCl, Tris-HCl 10 mM”, the “ddG of mutation (higher = less stable)” value is -3.1 kcal/mol, the denaturant m value is 2.5 kcal/mol/M, the “denaturant midpoint” value came out at 4.6 M and the unfolding free energy was found to be 5 kcal/mol. Further, under “pH 7.4, Urea, Tris-HCl 10 mM”, the “ddG of mutation (higher = less stable)” value was 1.7 kcal/mol, the denaturant m value was found to be 1 kcal/mol/M, the “denaturant midpoint” value came to 4.6 M and the unfolding free energy stood at 4 kcal/mol.
For the variant H57A W60A, under setting [1], the “ddG of mutation (higher = less stable)” value was found to be 2.2 kcal/mol, the denaturant m value worked out at 2.3 kcal/mol/M, the “denaturant midpoint” value worked out at 3.8 M and the unfolding free energy stood at 8.6 kcal/mol. Further, where the note is “pH 7.4, GdnHCl, Tris-HCl 10 mM”, the “ddG of mutation (higher = less stable)” value is -4.1 kcal/mol, the denaturant m value turned out to be 3 kcal/mol/M, the “denaturant midpoint” value stood at 2 M and the unfolding free energy came out at 6 kcal/mol. Where the note is “pH 7.4, Urea, Tris-HCl 10 mM”, the “ddG of mutation (higher = less stable)” value was -1.8 kcal/mol, the denaturant m value amounted to 1.5 kcal/mol/M, the “denaturant midpoint” value was 4.9 M and the unfolding free energy came out at 7.5 kcal/mol.
As for H57A, under setting [1], the “ddG of mutation (higher = less stable)” value was determined as 3.9 kcal/mol, the denaturant m value came to 1.9 kcal/mol/M, the “denaturant midpoint” value is 3.58 M and the unfolding free energy is 6.9 kcal/mol. For the same variant, where the note is “pH 7.4, GdnHCl, Tris-HCl 10 mM”, the “ddG of mutation (higher = less stable)” value amounted to 0.3 kcal/mol, the denaturant m value is 0.8 kcal/mol/M, the “denaturant midpoint” value was 2 M and the unfolding free energy was found to be 1.6 kcal/mol.

Values taken from FireProtDB (doi:10.1021/bi962939w).
